Results on four molecules are retold here after patent publication US9636415B2, “Bispecific molecule binding TLR9 and CD32 and comprising a T cell epitope for treatment of allergies” (S-TARget therapeutics GmbH, priority 2006, dated 2017).

The test system of data set [1] is PBMC. Put plainly: IFN and IL-4 ELISA in pooled PBMC culture supernatants after immunization with SG100. Type of data set: in vivo, rhesus monkey. The conditions noted are these: positive control, data not shown; PBMC of SG100-immunized animals. Here is the method:
5 healthy house dust mite (HDM) naïve rhesus monkeys were immunized 3× with SG100 (100 μg/shot) absorbed on Alum) on d0, d14 and d28. Blood samples were taken on d0 and d49 for T cell activation and antibody production.
Proliferation: PBMC ([…]) were cultured for 4 days (37° C./5% CO2/99% humidity) in 8 plex with medium, warhead (2 μg/ml), Immunogen (2 μg/ml), Der p1 (2 μg/ml), Der p2 (2 μg/ml), Der p5 (2 μg/ml) and Der p7 (2 μg/ml). As positive control Con A (Concanavaline A, Sigma) was used. Proliferation was measured by [3H]-thymidine (0.5 μCi/well) during the final 18 hrs of a 4 day culture. Cells were harvested for β-scintillation counting (Topcount NXT, Packerd, Ramsey, Minn., USA). Net counts per minutes were calculated by subtracting the counts of the medium control from the counts induced by the different antigens.
From each well of the 8plex stimulations of the proliferation experiment, 50 μl supernatant was taken after 24 h and pooled. The pooled supernatants were tested for the presence of IFN and IL-4 using commercially available ELISA kits from U-Cytech, Utrecht The Netherlands).
In general terms: ELISA stands for enzyme-linked immunosorbent assay.

The test system of data set [2] is human pDCs. The data set can be described thus: IFNα production of pDCs after stimulation with CpG targeted to CD32, AT10 or ScFV from IV.3 (Example 9). Type of data set: cell-based. The conditions noted are these: CpG without targeting; p<0.04 resp. p<0.02.
Procedure: Buffy coats were obtained from healthy volunteers according to institutional guidelines and pDCs were purified by positive isolation using anti-BDCA-4-conjugated magnetic microbeads (Miltenyi Biotec) and cultured in X-VIVO-15 medium (Cambrex) supplemented with 2% of decomplemented human AB+ serum. pDCs purity was routinely up to 95%, as assessed by double staining BDCA-2/CD123 (Miltenyi Biotec) in a FACS.
Subsequently, pDCs were incubated on ice for 15 minutes with either PBA, 5 μg/ml ODN-CpG C (M362, Axorra) in PBA or 5 μg/ml ODN-CpG C-3′-biotin in PBA (M362, Biosearch Technologies). Unbound ODN-CpG C was washed away three time with PBA and pDCs were cultured overnight (37° C., 5% CO2) in X-VIVO-15 medium (Cambrex), supplemented with 2% of decomplemented human AB+ serum. Supernatants were collected from pDC cultures after overnight stimulation, and IFNα production was analyzed with murine monoclonal capture and HRP-conjugated anti-IFNα antibodies (BenderMed systems) using standard ELISA procedures.
In data set [3] the test system is pDCS in PBMC. Put plainly: IL-6 and TNFα production after stimulation with CpG targeted to CD32 by aCD32a peptide (Example 10). The conditions noted are these: CpG without targeting. The format is cell-based, human. How it is done: Buffy coats were obtained from the Red Cross Austria. Cells were separated on ficoll hypack.
Freshly isolated PBMC's were incubated with 200 μg/ml aCD32a peptide published by Berntzen et al (J. Biol. Chem. (2009) 284:1126-1135; sequence ADGAWAWVWLTETAVGAAK-biotin, SEQ ID NO:68) in PBA (PBS containing 5% BSA) on ice for 30 minutes and washed twice with PBA, followed by an incubation with 10 μg/ml streptavidin in PBA on ice for 30 minutes and two times washing with PBA. Subsequently, PBMC's were incubated on ice for 15 minutes with either PBA, 5 μg/ml ODN-CpG C (M362, Axorra) in PBA or 5 μg/ml ODN-CpG C-3′-biotin in PBA (M362, Girindus). Unbound ODN-CpG C was washed away three time with PBA and PBMCs were cultured overnight (37° C., 5% CO2) in X-VIVO-15 medium (Cambrex), supplemented with 2% of decomplemented human AB+ serum. Supernatants were collected from PBMC cultures after overnight stimulation, and […] was analyzed with murine monoclonal capture and HRP-conjugated anti-IL-6 or TNF^L antibodies (BenderMed systems) using standard ELISA procedures.

The test system of data set [4] is mice. Put plainly: IgG1 and IgG2a ELISA after s.c. immunization of mice with ScFV-1-coil or warhead. Type of data set: in vivo, mouse. The conditions noted are these: day 28, s.c. 2x 35 μg d0, d14. Here is the method: 24 mice (6/group) were immunized s.c. 2× with 35 μg in 150 μl ScFV-1-coil or with warhead (ScFV-1-coil-M362) either formulated on Alum or diluted in PBS. Immunizations were done on d0, and d14, sera were taken on d0 (before immunization) and d28 and analyzed for IgG1 and IgG2a against ScFV-1-coil (indicated as ScFV) and mAb IV.3 by standard ELISA.

Setting [5] is: independent of the presence of Alum.

As to Concanavaline A [Con A], in data set [1], the “IL-4 after stimulation with Con A” value is “IL-4 was seen”.
For “TCGTCGTCGTTCGAACGACGTTGAT (chemistry not fully specified) [CpG standard, CpG class C oligodeoxynucleotide, TLR9 agonist, used without targeting]”, in data set [2], the “potency of IFNα induction compared to CpG targeted to CD32” value was “significantly less potent”. Moreover, the “IL-6 production: times less potent than CpG targeted to CD32” value in data set [3] is on record as roughly 75 times.

B1: warhead (conjugate)
scFv: EVQLQQSGPELKKPGETVKISCKASGYTFTNYGMNWVKQAPGKGLKWMGWLNTYTGESIYPDDFKGRFAFSSETSASTAYLQINNLKNEDMATYFCARGDYGYDDPLDYWGQGTSVTVSSGGGGSGGGGSGGGGSDIVMTQAAPSVPVTPGESVSISCRSSKSLLHTNGNTYLHWFLQRPGQSPQLLIYRMSVLASGVPDRFSGSGSGTAFTLSISRVEAEDVGVFYCMQHLEYPLTFGAGTKLELKGSISAWSHPQFEKGPEVSALEKEVSALEKEVSALEKEVSALEKEVSALEK
Turning to B1, in data set [4] (setting [5]), the “IgG1 response to ScFV-1-coil” value is listed as “strong”, the “IgG1 response to mAb IV.3” value is recorded as “strong”, the “IgG2 response to ScFV-1-coil” value was “strong” and the “IgG2 response to mAb IV.3” value is listed as “strong”.

B2: ScFV-1-coil: ScFV derived from mAb IV.3 with pepE coil plus StrepTag II (SEQ ID 93) (protein)
scFv: EVQLQQSGPELKKPGETVKISCKASGYTFTNYGMNWVKQAPGKGLKWMGWLNTYTGESIYPDDFKGRFAFSSETSASTAYLQINNLKNEDMATYFCARGDYGYDDPLDYWGQGTSVTVSSGGGGSGGGGSGGGGSDIVMTQAAPSVPVTPGESVSISCRSSKSLLHTNGNTYLHWFLQRPGQSPQLLIYRMSVLASGVPDRFSGSGSGTAFTLSISRVEAEDVGVFYCMQHLEYPLTFGAGTKLELKGSISAWSHPQFEKGPEVSALEKEVSALEKEVSALEKEVSALEKEVSALEK
modifications: ScFV
With B2, the IgG2a response entry in data set [4] (on Alum or in PBS) is given as “no IgG2a response was induced”. Further, the “IgG1 response against ScFV-1-coil” value in data set [4] (only in the presence of Alum) is “induced an IgG1 response”.
